In data set [1] the test system is HeLa Kyoto. In words: solubility in G1/S (NP-40 vs SDS abundance) (log2 ratio); higher = more soluble. The conditions noted are these: cell cycle stage: G1/S.
Data set [2] has as its system HeLa Kyoto. The data set can be described thus: thermal stability score vs G1/S (z-score of summed log2 fold changes over temperatures); higher = more thermally stable than in G1/S.
The subject of data set [3] is HeLa Kyoto. The data set can be described thus: solubility change mitosis vs G1/S (difference of NP-40 vs SDS log2 ratios) (log2 ratio difference); higher = more soluble in mitosis.
In data set [4] the test system is HeLa Kyoto. In words: melting temperature (median over replicates), in situ; higher = more thermally stable.
The mark [5] stands for this setting: cell cycle stage: early G1 (4.5 h after nocodazole release).
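Wherever melting temperature (median over replicates), in situ is given: HeLa Kyoto cells synchronized by double thymidine or nocodazole block, proteins quantified by TMT10plex mass spectrometry, three independent biological replicates.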
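Wherever solubility change mitosis vs G1/S (difference of NP-40 vs SDS log2 ratios) is given: synchronized HeLa Kyoto cells (double thymidine block for G1/S, nocodazole release for mitosis), protein amounts in NP-40 versus SDS lysates quantified by mass spectrometry, three biological replicates.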
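Wherever solubility in G1/S (NP-40 vs SDS abundance) is given: HeLa Kyoto cells arrested at G1/S by double thymidine block, proteins quantified by TMT10plex mass spectrometry in mild NP-40 versus SDS extracts, three biological replicates.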
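Wherever thermal stability score vs G1/S (z-score of summed log2 fold changes over temperatures) is given: synchronized HeLa Kyoto cells, proteins quantified by TMT10plex mass spectrometry, three biological replicates, mitosis taken 0.5 h after nocodazole release, G1/S directly after double thymidine block.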

HNRNPU, sequence (chain, as listed by the source): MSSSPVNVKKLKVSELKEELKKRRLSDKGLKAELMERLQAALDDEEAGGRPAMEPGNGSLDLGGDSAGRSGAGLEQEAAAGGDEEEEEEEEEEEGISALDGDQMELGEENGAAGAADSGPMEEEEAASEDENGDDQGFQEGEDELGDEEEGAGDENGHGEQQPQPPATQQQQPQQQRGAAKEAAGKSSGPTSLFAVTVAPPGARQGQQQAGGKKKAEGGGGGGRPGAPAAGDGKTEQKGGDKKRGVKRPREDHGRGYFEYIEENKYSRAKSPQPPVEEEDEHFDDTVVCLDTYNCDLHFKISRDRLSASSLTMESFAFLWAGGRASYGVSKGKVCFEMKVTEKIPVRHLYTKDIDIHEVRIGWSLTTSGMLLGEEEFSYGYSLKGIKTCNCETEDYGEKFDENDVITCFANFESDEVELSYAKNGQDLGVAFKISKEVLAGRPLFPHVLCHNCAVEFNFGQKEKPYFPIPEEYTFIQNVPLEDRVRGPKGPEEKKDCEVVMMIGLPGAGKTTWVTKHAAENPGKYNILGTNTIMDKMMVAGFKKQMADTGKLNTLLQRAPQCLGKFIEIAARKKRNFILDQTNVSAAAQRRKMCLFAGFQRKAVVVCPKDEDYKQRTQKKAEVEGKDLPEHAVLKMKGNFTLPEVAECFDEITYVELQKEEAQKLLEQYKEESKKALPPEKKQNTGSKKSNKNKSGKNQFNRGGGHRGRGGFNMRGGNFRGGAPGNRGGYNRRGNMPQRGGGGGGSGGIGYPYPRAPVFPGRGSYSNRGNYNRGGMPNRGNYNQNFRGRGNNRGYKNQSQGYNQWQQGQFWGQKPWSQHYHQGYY

As for “MYYKFSGFTQKLAGAWASEAYSPQGLKPVVSTEAPPIIFATPTKLTSDSTVYDYAGKNKVPELQKFFQKADGVPVYLKRGLPDQMLYRTTMALTVGGTIYCLIALYMASQPKNK [COX7A2L]”, the “solubility in G1/S (log2)” value with HeLa Kyoto [1] is -0.0362. Also, the thermal stability score was -2.74 in the data set on HeLa Kyoto [2] (setting [5]) and -1.52 in the data set on HeLa Kyoto [2] (cell cycle stage: mitosis). Further, the “solubility change mitosis (log2)” value in the data set on HeLa Kyoto [3] amounted to 0.107. Also, the melting temperature was 55.7 °C in the data set with HeLa Kyoto [4] (cell cycle stage: G1/S) and 52.3 °C in the data set with HeLa Kyoto [4] (cell cycle stage: mitosis).

With HNRNPU, in the data set on HeLa Kyoto [1], the “solubility in G1/S (log2)” value is -0.381. Also, the thermal stability score in the data set on HeLa Kyoto [2] (setting [5]) is 7.74; with HeLa Kyoto [2] (cell cycle stage: mitosis), 17.8. Besides, in the data set on HeLa Kyoto [3], the “solubility change mitosis (log2)” value came to 0.232. In addition, the melting temperature in the data set on HeLa Kyoto [4] (cell cycle stage: G1/S) was determined as 47.1 °C; in the data set with HeLa Kyoto [4] (cell cycle stage: mitosis), 49.5 °C.

Turning to “MHGRLKVKTSEEQAEAKRLEREQKLKLYQSATQAVFQKRQAGELDESVLELTSQILGANPDFATLWNCRREVLQQLETQKSPEELAALVKAELGFLESCLRVNPKSYGTWHHRCWLLGRLPEPNWTRELELCARFLEVDERNFHCWDYRRFVATQAAVPPAEELAFTDSLITRNFSNYSSWHYRSCLLPQLHPQPDSGPQGRLPEDVLLKELELVQNAFFTDPNDQSAWFYHRWLLGRADPQDALRCLHVSRDEACLTVSFSRPLLVGSRMEILLLMVDDSPLIVEWRTPDGRNRPSHVWLCDLPAASLNDQLPQHTFRVIWTAGDVQKECVLLKGRQEGWCRDSTTDEQLFRCELSVEKSTVLQSELESCKELQELEPENKWCLLTIILLMRALDPLLYEKETLQYFQTLKAVDPMRATYLDDLRSKFLLENSVLKMEYAEVRVLHLAHKDLTVLCHLEQLLLVTHLDLSHNRLRTLPPALAALRCLEVLQASDNAIESLDGVTNLPRLQELLLCNNRLQQPAVLQPLASCPRLVLLNLQGNPLCQAVGILEQLAELLPSVSSVLT [RABGGTA]”, the “solubility in G1/S (log2)” value in the data set with HeLa Kyoto [1] worked out at 0.0201. Besides, the thermal stability score with HeLa Kyoto [2] (setting [5]) was -0.496; in the data set with HeLa Kyoto [2] (cell cycle stage: mitosis), -1.06. In addition, the “solubility change mitosis (log2)” value with HeLa Kyoto [3] was -0.067. Further, the melting temperature with HeLa Kyoto [4] (cell cycle stage: G1/S) was 53.8 °C; with HeLa Kyoto [4] (cell cycle stage: mitosis), 53.3 °C.

Consider “MPFAEDKTYKYICRNFSNFCNVDVVEILPYLPCLTARDQDRLRATCTLSGNRDTLWHLFNTLQRRPGWVEYFIAALRGCELVDLADEVASVYQSYQPRTSDRPPDPLEPPSLPAERPGPPTPAAAHSIPYNSCREKEPSYPMPVQETQAPESPGENSEQALQTLSPRAIPRNPDGGPLESSSDLAALSPLTSSGHQEQDTELGSTHTAGATSSLTPSRGPVSPSVSFQPLARSTPRASRLPGPTGSVVSTGTSFSSSSPGLASAGAAEGKQGAESDQAEPIICSSGAEAPANSLPSKVPTTLMPVNTVALKVPANPASVSTVPSKLPTSSKPPGAVPSNALTNPAPSKLPINSTRAGMVPSKVPTSMVLTKVSASTVPTDGSSRNEETPAAPTPAGATGGSSAWLDSSSENRGLGSELSKPGVLASQVDSPFSGCFEDLAISASTSLGMGPCHGPEENEYKSEGTFGIHVAENPSIQLLEGNPGPPADPDGGPRPQADRKFQEREVPCHRPSPGALWLQVAVTGVLVVTLLVVLYRRRLH [MAVS]”, for which the “solubility in G1/S (log2)” value with HeLa Kyoto [1] came to 0.462. For the same substance, the thermal stability score in the data set with HeLa Kyoto [2] (setting [5]) is -0.897; with HeLa Kyoto [2] (cell cycle stage: mitosis) it was -0.611. In addition, in the data set on HeLa Kyoto [3], the “solubility change mitosis (log2)” value is -0.239. In addition, the melting temperature with HeLa Kyoto [4] (cell cycle stage: G1/S) worked out at 54.2 °C; in the data set on HeLa Kyoto [4] (cell cycle stage: mitosis), 54.4 °C.

With “MSPTQWDFPVELCCRPMAFVTLTGLDVVYNAVHRAVWDAFCANRRADRVPISFKVLPGDHEYPKCRPKRTSYEWYIPKGILKTGWMNKHLNLVPALVVVFYELDWDEPQWKEKQSECATRVEIVRQSLQGRNTKVAVVLIQKKTPLPPGEDVIASERAAALCNACELSGKSLFVLPHTDHLVGYIIRLENAFYEHAQTYYYTEIRRVKSHKEFLNKTTHQLLFVRHQFKIAFFSELKQDTQNALKNYRTAYNLVHELRAHETNILEIKTMAGFINYKICRLCFQHNTPLDAIAQFRKHIDLCKKKIGSAELSFEHDAWMSKQFQAFGDLFDEAIKLGLTAIQTQNPGFYYQQAAYYAQERKQLAKTLCNHEASVMYPNPDPLETQTGVLDFYGQRSWRQGILSFDLSDPEKEKVGILAIQLKERNVVHSEIIITLLSNAVAQFKKYKCPRMKSHLMVQMGEEYYYAKDYTKALKLLDYVMCDYRSEGWWTLLTSVLTTALKCSYLMAQLKDYITYSLELLGRASTLKDDQKSRIEKNLINVLMNESPDPEPDCDILAVKTAQKLWADRISLAGSNIFTIGVQDFVPFVQCKAKFHAPSFHVDVPVQFDIYLKADCPHPIRFSKLCVSFNNQEYNQFCVIEEASKANEVLENLTQGKMCLVPGKTRKLLFKFVAKTEDVGKKIEITSVDLALGNETGRCVVLNWQGGGGDAASSQEALQAARSFKRRPKLPDNEVHWDSIIIQASTMIISRVPNISVHLLHEPPALTNEMYCLVVTVQSHEKTQIRDVKLTAGLKPGQDANLTQKTHVTLHGTELCDESYPALLTDIPVGDLHPGEQLEKMLYVRCGTVGSRMFLVYVSYLINTTVEEKEIVCKCHKDETVTIETVFPFDVAVKFVSTKFEHLERVYADIPFLLMTDLLSASPWALTIVSSELQLAPSMTTVDQLESQVDNVILQTGESASECFCLQCPSLGNIEGGVATGHYIISWKRTSAMENIPIITTVITLPHVIVENIPLHVNADLPSFGRVRESLPVKYHLQNKTDLVQDVEISVEPSDAFMFSGLKQIRLRILPGTEQEMLYNFYPLMAGYQQLPSLNINLLRFPNFTNQLLRRFIPTSIFVKPQGRLMDDTSIAAA [TRAPPC11]”, the “solubility in G1/S (log2)” value with HeLa Kyoto [1] was -0.13. The thermal stability score in the data set on HeLa Kyoto [2] (setting [5]) is 0.0283; in the data set on HeLa Kyoto [2] (cell cycle stage: mitosis) it was -0.012. Also, in the data set with HeLa Kyoto [3], the “solubility change mitosis (log2)” value was -0.216. Moreover, the melting temperature worked out at 50.7 °C in the data set on HeLa Kyoto [4] (cell cycle stage: G1/S) and 50.3 °C in the data set with HeLa Kyoto [4] (cell cycle stage: mitosis).

In the case of “MFDTTPHSGRSTPSSSPSLRKRLQLLPPSRPPPEPEPGTMVEKGSDSSSEKGGVPGTPSTQSLGSRNFIRNSKKMQSWYSMLSPTYKQRNEDFRKLFSKLPEAERLIVDYSCALQREILLQGRLYLSENWICFYSNIFRWETTISIQLKEVTCLKKEKTAKLIPNAIQICTESEKHFFTSFGARDRCFLLIFRLWQNALLEKTLSPRELWHLVHQCYGSELGLTSEDEDYVSPLQLNGLGTPKEVGDVIALSDITSSGAADRSQEPSPVGSRRGHVTPNLSRASSDADHGAEEDKEEQVDSQPDASSSQTVTPVAEPPSTEPTQPDGPTTLGPLDLLPSEELLTDTSNSSSSTGEEADLAALLPDLSGRLLINSVFHVGAERLQQMLFSDSPFLQGFLQQCKFTDVTLSPWSGDSKCHQRRVLTYTIPISNPLGPKSASVVETQTLFRRGPQAGGCVVDSEVLTQGIPYQDYFYTAHRYCILGLARNKARLRVSSEIRYRKQPWSLVKSLIEKNSWSGIEDYFHHLERELAKAEKLSLEEGGKDARGLLSGLRRRKRPLSWRAHGDGPQHPDPDPCARAGIHTSGSLSSRFSEPSVDQGPGAGIPSALVLISIVICVSLIILIALNVLLFYRLWSLERTAHTFESWHSLALAKGKFPQTATEWAEILALQKQFHSVEVHKWRQILRASVELLDEMKFSLEKLHQGITVSDPPFDTQPRPDDSFS [GRAMD1A]”, the “solubility in G1/S (log2)” value in the data set on HeLa Kyoto [1] was -0.0369. In addition, the thermal stability score in the data set with HeLa Kyoto [2] (setting [5]) came out at 0.21; in the data set on HeLa Kyoto [2] (cell cycle stage: mitosis), 0.368. Besides, the “solubility change mitosis (log2)” value in the data set on HeLa Kyoto [3] was -0.0358. The values for the melting temperature with HeLa Kyoto [4] (cell cycle stage: G1/S) and with HeLa Kyoto [4] (cell cycle stage: mitosis) were 50.4 °C and 51.8 °C, respectively.
